Assay results taken from US12379386B2, “Antibodies to 25-hydroxyvitamin D2 and D3 for detecting total 25-hydroxyvitamin D” (Siemens Healthcare Diagnostics Inc., priority 2011, dated 2025).

Experiments:
Type in all cases: binding
[1] = Displacement assay with purified coated 10H9 and alkaline phosphatase tracer, competitor 25-hydroxyvitamin D3; conditions: for optical density at 405 nm: MAb coat 1 ug/mL
Protocol: (§1) Next, displacement experiments were conducted using purified antibody, rather than cell supernatant. In this experiment, the antibody of interest was coated directly on the microtiter plate via a two-hour incubation. Coated plates were washed and then coincubated with either 25-hydroxyvitamin D2 or 25-hydroxyvitamin D3 in the presence of alkaline phosphatase-conjugated vitamin D-C22 BSA. After 30 minutes the plates were washed and color was developed by adding the substrate p-nitrophenyl phosphate (PNPP). Optical density colored solution was measured at 405 nm.

[2] = Displacement assay with purified coated 10H9 and alkaline phosphatase tracer, competitor 25-hydroxyvitamin D2; conditions: for optical density at 405 nm: MAb coat 1 ug/mL
Protocol: as §1

[3] = Antibody displacement assay, 10H9 supernatant, competitor 25-hydroxyvitamin D2; conditions: for optical density at 450 nm: 25 OH-D2 0.4 μg/mL, coat Vit D C22-Diaminobutane-Suberoyl-KLH 50 ng/mL
Protocol: (§2) Following isolation of hybridoma clones, studies were conducted to determine the relative ability of the antibodies to bind to both 25-hydroxyvitamin D2 and 25-hydroxyvitamin D3. To assess this, antibody displacement assays were conducted to determine the degree to which binding between vitamin D-C22 BSA and a reactive antibody raised against the antigen (10H9) could be disrupted by the presence of 25-hydroxyvitamin D2 or 25-hydroxyvitamin D3. Cell culture supernatant from the 10H9 hybridoma cell lines producing antibodies reactive to vitamin D-C22 BSA were coincubated in the presence or absence of 25-hydroxyvitamin D2 or 25-hydroxyvitamin D3 on microtiter plates coated with vitamin D-C22 KLH for 1 hour. After washing the plates, goat anti-mouse IgG-HRPO was added and incubated for 30 minutes. Plates were washed and then incubated with tetramethyl benzidine (TMB). The generated color was stopped using 1N sulfuric acid and the optical density was measured at 450 nm.

[4] = Antibody displacement assay, 10H9 supernatant, competitor 25-hydroxyvitamin D3; conditions: for optical density at 450 nm: 25 OH-D3 0.4 μg/mL, coat Vit D C22-Diaminobutane-Suberoyl-KLH 50 ng/mL
Protocol: as §2

[5] = system: Vit D C22-Diaminobutane-Suberoyl-KLH; assay: 10H9 hybridoma supernatant ELISA on coated plate, no competing antigen; conditions: Ag 0, coat 50 ng/mL
Protocol: as §2

- optical density at 405 nm ([1]; 25OH-VIT D3 0 ng/ml): 1.213
- optical density at 405 nm ([1]; 25OH-VIT D3 5 ng/ml): 1.083
- optical density at 405 nm ([1]; 25OH-VIT D3 10 ng/ml): 0.800
- optical density at 405 nm ([1]; 25OH-VIT D3 25 ng/ml): 0.519
- optical density at 405 nm ([1]; 25OH-VIT D3 100 ng/ml): 0.115
- optical density at 405 nm ([1]; 25OH-VIT D3 200 ng/ml): 0.089
- optical density at 405 nm ([1]; 25OH-VIT D3 400 ng/ml): 0.077
- optical density at 405 nm ([1]; 25OH-VIT D3 1000 ng/ml): 0.069
- optical density at 405 nm ([2]; 25OH-VIT D2 0 ng/ml): 1.277
- optical density at 405 nm ([2]; 25OH-VIT D2 5 ng/ml): 1.189
- optical density at 405 nm ([2]; 25OH-VIT D2 10 ng/ml): 1.007
- optical density at 405 nm ([2]; 25OH-VIT D2 25 ng/ml): 0.771
- optical density at 405 nm ([2]; 25OH-VIT D2 100 ng/ml): 0.106
- optical density at 405 nm ([2]; 25OH-VIT D2 200 ng/ml): 0.080
- optical density at 405 nm ([2]; 25OH-VIT D2 400 ng/ml): 0.069
- optical density at 405 nm ([2]; 25OH-VIT D2 1000 ng/ml): 0.063
- optical density at 450 nm ([3]; supernatant dilution 1:4): 0.323
- optical density at 450 nm ([3]; supernatant dilution 1:16): 0.154
- optical density at 450 nm ([3]; supernatant dilution 1:64): 0.097
- optical density at 450 nm ([3]; supernatant dilution 1:256): 0.086
- optical density at 450 nm ([4]; supernatant dilution 1:4): 0.384
- optical density at 450 nm ([4]; supernatant dilution 1:16): 0.176
- optical density at 450 nm ([4]; supernatant dilution 1:64): 0.105
- optical density at 450 nm ([4]; supernatant dilution 1:256): 0.090
B1: 10H9: murine monoclonal antibody from the 10H9 hybridoma, raised against vitamin D-C22 BSA; binds 25-hydroxyvitamin D2 and D3 (antibody, V domains shown)
VH: VQLLESGPELVKPGASMKISCKASGYSFTDYTMNWVKQSHGKNLEWIGLINPYNGFTIYNQKFKGKATLTVDKSSSTAYMELLSLTSEDSAVYYFIRAHYDGRVFWGQGTTLTVSS
VL: CELVMTQSPLSLPVSLGDQASVSCRSSQSLVHSNGNTYLHRYLQKPGQSPKLLIYQVSNRFSGVPDRFSGSGSGTDFTLKITRVEAEDLGVYFCSQITHFPPTFGGGTKLEIKR
modifications: Description of Unknown: 10H9 monoclonal antibody heavy chain variable region polypeptide; Description of Unknown: 10H9 monoclonal antibody light chain variable region polypeptide
- disruption of 10H9 binding to vitamin D-C22 BSA by coincubation ([1]; purified antibody, 25-hydroxyvitamin D3): disrupted in a concentration-dependent manner
- disruption of 10H9 binding to vitamin D-C22 BSA by coincubation ([2]; purified antibody, 25-hydroxyvitamin D2): disrupted in a concentration-dependent manner
- disruption of antibody binding by coincubation ([3]; 10H9 supernatant, 25-hydroxyvitamin D2): disrupted in a concentration-dependent manner
- disruption of antibody binding by coincubation ([4]; 10H9 supernatant, 25-hydroxyvitamin D3): disrupted in a concentration-dependent manner
- optical density at 450 nm ([5]; supernatant dilution 1:4): 1.997
- optical density at 450 nm ([5]; supernatant dilution 1:16): 1.244
- optical density at 450 nm ([5]; supernatant dilution 1:64): 0.672
- optical density at 450 nm ([5]; supernatant dilution 1:256): 0.313
